Target: human PD-1 (programmed cell death 1) (human) (UniProt Q15116)
Assay: column Affinity (nM); by the footnote of Tables 3 and 11: FACS staining of endogenous cell surface PD-1 on activated CD4 T cells [row BMS-5C4]

Chain of UniProt Q15116 (Q15116 25-288 limits assumed): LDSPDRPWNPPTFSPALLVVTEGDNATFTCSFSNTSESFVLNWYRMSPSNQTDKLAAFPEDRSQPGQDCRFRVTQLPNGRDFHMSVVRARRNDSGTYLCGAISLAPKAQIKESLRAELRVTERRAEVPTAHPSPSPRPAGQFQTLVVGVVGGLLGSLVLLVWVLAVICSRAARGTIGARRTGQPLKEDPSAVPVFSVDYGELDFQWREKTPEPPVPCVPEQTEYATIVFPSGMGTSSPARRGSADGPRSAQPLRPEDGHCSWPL

BMS-5C4 (antibody)
Affinity: 0.6 nM

From patent US20180265582A1
